We go through two molecules from article PMC9943675, “Depletion of the RNA-binding protein PURA triggers changes in posttranscriptional gene regulation and loss of P-bodies”.

The data set has as its target T1, PURA (Pur-alpha) (Homo sapiens, UniProt Q00577 1-322).
T1 sequence: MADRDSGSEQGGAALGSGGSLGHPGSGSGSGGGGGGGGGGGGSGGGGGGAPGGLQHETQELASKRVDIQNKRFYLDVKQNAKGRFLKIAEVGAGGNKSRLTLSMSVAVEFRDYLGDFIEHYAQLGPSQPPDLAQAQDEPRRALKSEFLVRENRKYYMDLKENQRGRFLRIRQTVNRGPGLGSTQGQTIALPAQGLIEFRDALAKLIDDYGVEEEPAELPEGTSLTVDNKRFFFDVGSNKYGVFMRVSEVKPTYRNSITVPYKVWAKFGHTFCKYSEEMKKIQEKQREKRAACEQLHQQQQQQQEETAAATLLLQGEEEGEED
The data set can be described thus: EMSA; 100 ug/ml yeast tRNA; 250 mM NaCl, 20 mM HEPES pH 8.0, 3 mM MgCl2, 4% glycerol, 2 mM DTT, 100 ug/ml yeast tRNA, 2.5 nM RNA, 20 min RT; 6% TBE gel. The note with it: protein: recombinant; tags: GST-PURA (pOPIN-J); GST removed with 3C protease; chain copies: 2; label: 5' 32P. (A gel shift assay detects complexes by their altered migration in electrophoresis.)

B1: CLTA (ssRNA)
RNA: GUUGUUUGUGAUUGCAUGUUUCCUUCCUUCAACUGUGUUCUCCCUGGCAUU
For the molecule B1, the binding result is “binds”.

B2: CLTC (ssRNA)
RNA: GUCUUGUGUGUGUUUACUAACCCUUCCCUGAGGUUUGUGUAUGUUGGAUAUUGUGGUGUUUUAG
Regarding B2, the binding result is on record as “binds”.
